Measurements taken from publication PMC11606499, “Molecular principles of the assembly and construction of a carboxysome shell” (Science Advances, 2024).

B1: CsoS1A (in recombinant α-carboxysome midi-shells) (natural protein, Halothiobacillus neapolitanus c2)
chain: MADVTGIALGMIETRGLVPAIEAADAMTKAAEVRLVGRQFVGGGYVTVLVRGETGAVNAAVRAGADACERVGDGLVAAHIIARVHSEVENILPKAPQA
notes: CsoS1A, hexameric shell protein of the α-carboxysome, Halothiobacillus neapolitanus c2; the gene as it stands in the midi-shell operon derived from the synthetic cso-2 operon; CsoS1A, CsoS1B and CsoS1C could not be told apart in the symmetrised maps; also called CsoS1 hexamer; BMC-H; source: E. coli BW25113, midi-shell operon (L-arabinose induced), in purified shells
B3: CsoS1C (in the CsoS1C-based T = 9 mini-shell) (natural protein, Halothiobacillus neapolitanus c2)
chain: MAAVTGIALGMIETRGLVPAIEAADAMTKAAEVRLVGRQFVGGGYVTVLVRGETGAVNAAVRAGADACERVGDGLVAAHIIARVHSEVENILPKAPEA
notes: CsoS1C, shell hexamer paralog, Halothiobacillus neapolitanus c2; differs from CsoS1A at the 3rd and 97th amino acids; the gene as it stands in the mini-shell operon; source: E. coli BW25113, CsoS1C-based mini-shell operon, in purified shells
B8: His-tagged CsoS1B (expressed alone or coexpressed with CsoS1A or CsoS1C) (natural protein, Halothiobacillus neapolitanus c2, UniProt P45690 1-110, looked up)
chain: MATTHGIALGMIETRGLVPAIEAADAMTKAAEVRLVGRSFVGGGYVTVMVRGETGAVNAAVRAGADACERVGDGLVAAHIIARVHSEVEIILPETPEDSDSAWCIANLNS
notes: CsoS1B, Halothiobacillus neapolitanus c2; gene fragment amplified from the cso-2 operon; Six copies when expressed alone; about 1.5 copies per hexamer in the coexpressed CsoS1A/B sample; source: E. coli BL21 (DE3), pET-22b, purified (Ni-NTA, Superdex 200); not shown: His tag, C-terminal, kept

Columns and labels:
[1] = biological target: the molecule itself; assay: cryo-EM structure; purified midi-shells assembled in E. coli from the coexpressed proteins; T = 9, T = 9 Q = 12, T = 13, T = 16 and T = 19 shells at 2.3, 2.99, 2.93, 2.75 and 3.04 Å, symmetry imposed
[2] = biological target: T1, C-terminal domain of CsoS2 (CsoS2-C) (Halothiobacillus neapolitanus c2, UniProt O85041 604-869); assay: as above; conditions: both partners purified
T1 construct: CsoS2, scaffolding/linker protein of the α-carboxysome, Halothiobacillus neapolitanus c2; source: E. coli BW25113, midi-shell operon or CsoS1C-based mini-shell operon, in purified shells
T1 sequence (looked up): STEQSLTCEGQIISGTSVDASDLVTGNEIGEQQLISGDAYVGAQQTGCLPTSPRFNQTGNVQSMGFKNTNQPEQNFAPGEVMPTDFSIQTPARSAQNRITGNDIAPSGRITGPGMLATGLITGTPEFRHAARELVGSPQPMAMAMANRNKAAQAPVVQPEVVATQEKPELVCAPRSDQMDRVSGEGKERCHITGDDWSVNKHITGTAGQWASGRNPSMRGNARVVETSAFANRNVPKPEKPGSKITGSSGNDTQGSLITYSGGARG

[3] = biological target: the molecule itself; assay: SEC + other: dynamic light scattering; Superdex 200 in 50 mM tris-HCl pH 8.0, 100 mM NaCl; DLS on DynaPro NanoStar, in triplicate; proteins expressed alone or coexpressed and purified by Ni-NTA through the His tag of one of them
[4] = biological target: the molecule itself; assay: cryo-EM structure; purified CsoS1C-based T = 9 mini-shell assembled in E. coli from the coexpressed proteins; 1.8 Å
[5] = biological target: T1, C-terminal domain of CsoS2 (CsoS2-C); assay: as above; conditions: both partners purified
[6] = biological target: B8; assay: SDS-PAGE of washed crystals; crystals of the coexpressed CsoS1A and His-tagged CsoS1B sample, washed with buffer for various times before SDS-PAGE; conditions: both partners purified
[7] = biological target: the molecule itself; assay: crystal structure; crystals of the purified coexpressed CsoS1A and His-tagged CsoS1B sample, hanging drop, 18°C; 2.1 Å
[8] = biological target: B8; assay: SEC + other: dynamic light scattering; Superdex 200 in 50 mM tris-HCl pH 8.0, 100 mM NaCl; DLS on DynaPro NanoStar, in triplicate; proteins expressed alone or coexpressed and purified by Ni-NTA through the His tag of one of them; conditions: both partners purified
[9] = biological target: the molecule itself; assay: SEC; Superdex 200 in 50 mM tris-HCl pH 8.0, 100 mM NaCl; individually expressed CsoS4 proteins
[10] = biological target: T2, CsoS4A (untagged, coexpressed with His-tagged CsoS4B) (Halothiobacillus neapolitanus c2, UniProt O85043 1-83); assay: SEC + other: dynamic light scattering; Superdex 200 in 50 mM tris-HCl pH 8.0, 100 mM NaCl; DLS on DynaPro NanoStar, in triplicate; proteins expressed alone or coexpressed and purified by Ni-NTA through the His tag of one of them; conditions: both partners purified
T2 construct: CsoS4A, Halothiobacillus neapolitanus c2; gene amplified from the cso-2 operon, the His tag stands on CsoS4B only; source: E. coli BL21 (DE3), pET-22b csoS4A-csoS4B, co-purified with His-tagged CsoS4B (Ni-NTA, Superdex 200)
T2 sequence: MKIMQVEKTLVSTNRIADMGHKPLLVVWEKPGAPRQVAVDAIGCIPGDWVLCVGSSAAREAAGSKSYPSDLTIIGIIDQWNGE

[11] = biological target: B1; assay: cryo-EM structure; purified midi-shells assembled in E. coli from the coexpressed proteins; T = 9, T = 9 Q = 12, T = 13, T = 16 and T = 19 shells at 2.3, 2.99, 2.93, 2.75 and 3.04 Å, symmetry imposed; conditions: both partners purified
[12] = biological target: B3; assay: cryo-EM structure; purified CsoS1C-based T = 9 mini-shell assembled in E. coli from the coexpressed proteins; 1.8 Å; conditions: both partners purified

## B1
[1]
  stoichiometry N: 6
[2]
  binding result: binds

B2: His-tagged CsoS1A (individually expressed) (natural protein, Halothiobacillus neapolitanus c2)
chain: MADVTGIALGMIETRGLVPAIEAADAMTKAAEVRLVGRQFVGGGYVTVLVRGETGAVNAAVRAGADACERVGDGLVAAHIIARVHSEVENILPKAPQA
notes: CsoS1A, Halothiobacillus neapolitanus c2; gene fragment amplified from the cso-2 operon; source: E. coli BL21 (DE3), pET-22b, purified (Ni-NTA, Superdex 200); not shown: His tag, C-terminal, kept
[3]
  stoichiometry N: 6

## B3
[4]
  stoichiometry N: 6
[5]
  binding result: binds

B4: CsoS1C (individually expressed, C-terminal His tag) (natural protein, Halothiobacillus neapolitanus c2)
chain: MAAVTGIALGMIETRGLVPAIEAADAMTKAAEVRLVGRQFVGGGYVTVLVRGETGAVNAAVRAGADACERVGDGLVAAHIIARVHSEVENILPKAPEA
notes: CsoS1C, Halothiobacillus neapolitanus c2; gene fragment amplified from the cso-2 operon; source: E. coli BL21 (DE3), pET-22b, purified (Ni-NTA, Superdex 200)
[3]
  stoichiometry N: 6

B5: CsoS1A (untagged, coexpressed with His-tagged CsoS1B) (natural protein, Halothiobacillus neapolitanus c2)
chain: MADVTGIALGMIETRGLVPAIEAADAMTKAAEVRLVGRQFVGGGYVTVLVRGETGAVNAAVRAGADACERVGDGLVAAHIIARVHSEVENILPKAPQA
notes: CsoS1A, Halothiobacillus neapolitanus c2; gene amplified from the cso-2 operon, the His tag stands on CsoS1B only; also called S1A-S1B (coexpressed sample); source: E. coli BL21 (DE3), pET-22b csoS1A-csoS1B, co-purified with His-tagged CsoS1B (Ni-NTA, Superdex 200)
[6]
  stoichiometry N: ~3 CsoS1A per CsoS1B
[7]
  stoichiometry N: 6

B6: CsoS1C (untagged, coexpressed with His-tagged CsoS1B) (natural protein, Halothiobacillus neapolitanus c2)
chain: MAAVTGIALGMIETRGLVPAIEAADAMTKAAEVRLVGRQFVGGGYVTVLVRGETGAVNAAVRAGADACERVGDGLVAAHIIARVHSEVENILPKAPEA
notes: CsoS1C, Halothiobacillus neapolitanus c2; gene amplified from the cso-2 operon, the His tag stands on CsoS1B only; source: E. coli BL21 (DE3), pET-22b csoS1C-csoS1B, co-purified with His-tagged CsoS1B (Ni-NTA, Superdex 200)
[8]
  binding result: binds

B7: CsoS4B (C-terminal His tag; expressed alone or coexpressed with CsoS4A) (natural protein, Halothiobacillus neapolitanus c2, UniProt O85044 1-81, looked up)
chain: MEVMRVRSDLIATRRIPGLKNISLRVMEDATGKVSVACDPIGVPEGCWVFTISGSAARFGVGDFEILTDLTIGGIIDHWVT
notes: CsoS4B, Halothiobacillus neapolitanus c2; gene fragment amplified from the cso-2 operon; Five copies when expressed alone; source: E. coli BL21 (DE3), pET-22b, purified (Ni-NTA, Superdex 200)
[9]
  stoichiometry N: 5
[10]
  binding result: binds

## B8
[3]
  stoichiometry N: 6

B9: CsoS4A (in recombinant α-carboxysome shells) (natural protein, Halothiobacillus neapolitanus c2)
chain: MKIMQVEKTLVSTNRIADMGHKPLLVVWEKPGAPRQVAVDAIGCIPGDWVLCVGSSAAREAAGSKSYPSDLTIIGIIDQWNGE
notes: CsoS4A, pentameric vertex protein of the α-carboxysome shell, Halothiobacillus neapolitanus c2; the gene as it stands in the shell operon; All pentamers of the shell models were assigned to CsoS4A; also called CsoS4 pentamer; BMC-P; source: E. coli BW25113, midi-shell operon or CsoS1C-based mini-shell operon, in purified shells
[1]
  stoichiometry N: 5
[11]
  binding result: binds
[12]
  binding result: binds

B10: CsoS4A (individually expressed, C-terminal His tag) (natural protein, Halothiobacillus neapolitanus c2)
chain: MKIMQVEKTLVSTNRIADMGHKPLLVVWEKPGAPRQVAVDAIGCIPGDWVLCVGSSAAREAAGSKSYPSDLTIIGIIDQWNGE
notes: CsoS4A, Halothiobacillus neapolitanus c2; gene fragment amplified from the cso-2 operon; In solution pentamers and other aggregation forms; source: E. coli BL21 (DE3), pET-22b, purified (Ni-NTA, Superdex 200)
[9]
  stoichiometry N: 5
